Assay results as given in article PMC3355127.

How the values were obtained:
[1] = plasma VWF:Ag ELISA after hydrodynamic injection in VWF-/- mice; conditions: glycan lost; control: WT mVwf cDNA
[2] = SDS/2% agarose multimer gel of plasma, densitometry; conditions: glycan lost; control: WT mVwf cDNA
[3] = whole-blood perfusion over collagen, 2500 s-1, platelet coverage; conditions: glycan lost; control: blood of WT-VWF expressing mice
[4] = in vivo NHS-biotin labelling, residual biotinylated VWF in plasma; conditions: glycan lost; control: WT-mVWF
[5] = VWF antigen ELISA, COS-7 lysate (intracellular retention); conditions: glycan lost; control: WT mVwf
[6] = VWF antigen ELISA, COS-7 supernatant; conditions: glycan lost; control: WT mVwf

| Substance | expression_or_secretion, other: VWF:Ag, % of normal murine plasma [1] | oligomerisation [2] | other: thrombus formation on collagen under flow, other: platelet surface coverage [3] | degradation_or_half_life, half_life [4] | localisation_or_trafficking [5] | expression_or_secretion [6] |
| --- | --- | --- | --- | --- | --- | --- |
| murine VWF (mVWF): S1486A | no change | no change | decreases, 11.6±1.0 vs 15.8±0.9 | – | – | – |
| murine VWF (mVWF): S1486A/S1487A | no change | no change | – | – | – | – |
| murine VWF (mVWF): S1487A | no change | no change | – | – | – | – |
| murine VWF (mVWF): T1248A | no change | no change | – | – | – | – |
| murine VWF (mVWF): T1248A/T1255A/T1256A (cluster 1) | no change | no change | – | – | – | – |
| murine VWF (mVWF): T1255A | no change | no change | decreases, 8.2±1.2 vs 15.8±0.9 | – | – | – |
| murine VWF (mVWF): T1255A/T1256A | decreases, 432±55 vs 833±76 | no change | decreases, 6.0±0.9 vs 15.8±0.9 | decreases, 3.0±0.3 vs 6.1±1 | no change | no change |
| murine VWF (mVWF): T1256A | no change | no change | decreases, 6.4±1.2 vs 15.8±0.9 | – | – | – |
| murine VWF (mVWF): T1468A | no change | no change | – | – | – | – |
| murine VWF (mVWF): T1468A/T1477A/S1486A/S1487A (cluster 2) | no change | no change | – | – | – | – |
| murine VWF (mVWF): T1477A | no change | no change | – | – | – | – |
| murine VWF (mVWF): T1679A | no change | no change | – | – | – | – |
| murine VWF (mVWF): T2298A | no change | no change | – | – | – | – |
